# Measured values as given in the nanobody polyreactivity screen of Harvey et al. (2022).
# Experiment: yeast display, Sf9 membrane polyspecificity reagent, FACS + sequencing; frameworks hold sequencing errors
# Procedure, shortened: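 Genes from sorted yeast were amplified by colony PCR, read by MiSeq 2 × 250 sequencing and filtered on CDR length. These cells carried a synthetic nanobody library in Saccharomyces cerevisiae BJ5465 and were sorted by FACS into low and high (top ~1%) gates on anti-HA and streptavidin fluorescence. Polyreactivity is labelled according to the gate of origin.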
sequence,measurement,value
QVQLVESGGGLAQAGGSLRLSCAASGLIFYYNAMGWYRQAPGKERELVAAISSSGGRTYYADSVKGRFTISRDNAKNTVYLQMNSLKPEDTAVYYCAATSYGYGSRYDYWGQGTQVTVSS,polyreactivity (PSR sort gate),high polyreactivity
QVQLVESGGGLVQAGGSLRLSCAASGYTFGTYTMGWYRQAPGKERELVAGIDSGGTTNYADSVKGRFTISRDNAKNTVYLKMNRVKPEDTAVYYCTAYHLLIVDYYLGMYYYGGNYYWGQGNQVTVSS,polyreactivity (PSR sort gate),low polyreactivity
QVQLVESGGGLVQAGGSLRLTCAASGYTLGYNAMGWYRKAPGKEMELVAAITIDGSTTYADSVKGRFTISRDNAKNTVYLLMNSLKPEDTAVYYCNAEGFTSDPYDSDYWGKGTQVTVSS,polyreactivity (PSR sort gate),low polyreactivity
QVQLVESGGGLVQAGGRLRLSSAASGRIFASNAMGWYRQAPGKERELVARIDSGGITNYADSVKGRFTISRDNAKNTVYFQMNSLKPEDTGVYYCAKSVGWWSPPLGVYWVQGTQVTVSS,polyreactivity (PSR sort gate),low polyreactivity
QVQLVESGGGLVQAGGSLRLSCAASGNIFGFYTMGWNRQAPGKERELVAAIRSRGGSTNYADSVKGRFTISRDTAKNTVYLQMNSLKPEDTAVYYCNKDGTWLARAVTYADFDYWGQGTQVTVSS,polyreactivity (PSR sort gate),low polyreactivity
QVQLVESGGGLVQAGGSLRLSCAASGFIFKPYDMGWYRQARGKEREFVAAITYSGGRTYYADSVKGRFTISRDNAKNTVYLHMNSLKPEDTAVYYCAADQYWWYWYDYWGQGTQVTVSS,polyreactivity (PSR sort gate),high polyreactivity
QVQLVESGGGLVQAGGSLRLSCAASGSIFDYNAMGWYRQAPGKERELVAAINYSGTRTYYADSVKGRFTISRDNAKNTVYLQMNSLKPEDTADYYCAARVRVPQTARLHEYWGQGTQVTVSS,polyreactivity (PSR sort gate),high polyreactivity
QVQLVESGGGLVQAGGSLRLSCGASGRIFWDNAMGWYRQAPGKERELVAAIDYRGGNTNYADSVKGRFTISRDNAKNTVYLQMNRLKTEDTAVYYCNAEWAVRYPGYDYWGQGTQVTVSS,polyreactivity (PSR sort gate),low polyreactivity
QVQIVESGGAFVQAGGSLRLRCEASGSTFVNKDMGWSRPAPGKEREFVAAIRNTGGRTYYADSVKGRFTISRDNAKNSVYLQMNSLKPEDTAVYYCAAVSRVRTLWRMDYWGQGTQVTVSS,polyreactivity (PSR sort gate),high polyreactivity
QVQLVESGGGLVQAGGSLRLSCAASGSIFSQYAMGWYRQAPGKERELVAAITYGGGSTYYADSVKGRFTISRDNAKNTVYLQMNSLKPEDTAVYYCAAGYWNDFDWGQGTQVTVSS,polyreactivity (PSR sort gate),low polyreactivity
QVQLVESGGGLVQAGGSLRLSCAASGITFDRYALGWYRPAPGKEREFVAAISWRGGSTYYADSVKGRFTISRDNAKNTVYLQMNSLKPEDTAVYYCAVGYYDHDYWYEYWGQGTQVTVSS,polyreactivity (PSR sort gate),high polyreactivity
QVQLVESGGGLVQAGGSLRISCAASGLTSVTYAMGWYRQAPGKERELVAAITSRAGSTYYADSVKGRFTISRDNAKNTVYLQMNSLKPEDTAVYYCAKDIIRKVYAGYVGRYDYWGQGTQVTVSS,polyreactivity (PSR sort gate),low polyreactivity
QVQLVESGGGLVQAGGSLRLSCAASGSIFLIYAMGWYRQAPGKERELVATINRGDNTYYADSVKGRFTISRDNAKNTVYLQMNSLKPEDTAVYYCAARAYDLGYAGYDYWGQGTQVTVSS,polyreactivity (PSR sort gate),low polyreactivity
QVQLVESGGGLVQAGGSLRLSCSASGSIFRGYTMGLYRQAPGKERELVAGITLRGVSTYYADSVKGRFTISRDNAKNTVYVQMNSLKPEDTAVYYGAVDYGRAVQGDSITYDFNYWGQGTQVTVSS,polyreactivity (PSR sort gate),low polyreactivity
QVQLVESGGGLVQAGGSLRLSCAASGSTFAKNAMGWYRQAPGKERELVAAITYSGGSTYYADSVKGRFTISRDNAKNTVYLQMNSLKPEDTAVYFCASDVWWSDYRYDYWGQGTQVTVSS,polyreactivity (PSR sort gate),low polyreactivity
QVQLVESGGGLVQAGGSLRLSCAASGRSFCSYAMGWYRHAPGKERELVAAITSGGSTNYADSVKGRFTISRDNAKNTVYLQMNSLKPEVTAVYYCAAVEYLRESDYWGQGTQVTVSS,polyreactivity (PSR sort gate),low polyreactivity
QVQLVESGGGLVQAGGSLRLSCAASGFIFYGYTMGWYRQAPGKERELVAAITRGGSTYYADSVKGRFTISRDNAKNTVYLQMNSLKPEDTAVYYCAALTWDGMDYWGQGTQVTVSS,polyreactivity (PSR sort gate),high polyreactivity
QVQLVESGVGLVQAGGSLRLSCAASGSTFEYNAMGWYRQAPGKERELVASSTNYADSVKGRFTISRDNAKNTVYLQMNSLKPEDTAVYYCAREQGVNRNHDYWGQGTQVTVSS,polyreactivity (PSR sort gate),low polyreactivity
QVQLVESGGGLVQAGGSLRLSCAASGRIFIWYAMGWYRQAPGKDRELVAAISTDGSPYYADSVKGRFTISRDNAKNTVYLQMNSLKPEDTAVYYCAAVPGYTHLWGGPFDYWGQGTQVTVSS,polyreactivity (PSR sort gate),low polyreactivity
QVQLVESGGGLVQAGGSLRLSCAATGRTFSTYAMGWYRQAPGKERELVAAISSGGGRTYYADSVKGRFTISRDNAKNTVYLQMNSLKPEDTAVYYCAADFLWYIYIIGTSLEFDYWGQGTQVTVSS,polyreactivity (PSR sort gate),low polyreactivity
QVQLVESVGGLVQAGGSLRLSCAASGSIFASNSMGWYRQETGKEREFVAAITWRTDRTYYADSVKGRFTISRDNAKNTLYFQMNSLKPEDTAVYYFAADTWFYRFYYWGQGTQVTVSS,polyreactivity (PSR sort gate),high polyreactivity
QVQLVETGGGLVQAGGSLRLSCAASGSIFHPYGIGSYRQGPGKERELVAAITSSGGDTYYADSVKGRFTISRDNSKNTVYLQINSLKPEDTAVYYCAATGLPGYYAYDYWGQGTQVTVSS,polyreactivity (PSR sort gate),low polyreactivity
QVQLVESGGGLVQAGGSLRLSCAASGRTFYSYVMGWYRQAPGKEREFVADISQSGGRTYYADSVKGRFTISRDNAKNTVYLQMNSLKPEDTAVYYCAAAKRGSYARGYYWGQGTQVTVSS,polyreactivity (PSR sort gate),low polyreactivity
QVQLVESGGGLVQAGGSLRLSCAASGRTIVYYAMGRYRQAPGKERELVAAISSSGSTYYADSVKGRFTISRDNAKNTVYLQMNSLKPEDTAVYYCATTHDYWLWGMGYWGQGTQVTVSS,polyreactivity (PSR sort gate),high polyreactivity
QVQLVESGGGLVQAGGSLRLICAASGRTSVVNAMGWYRQAPGKERELVAAITSGGSTHYADSVKGRFTISRDNAKNTVYLQITSLKPEDTAGYYFNARDRRRTNLLDYWGQATQVTVSS,polyreactivity (PSR sort gate),low polyreactivity
QVQLVESGGGLVQAGGSLRLSCAASGFNFRYNAMGWYRQAPGKERELVAGISGGGTHYADSVKGRFTISRDNAKNTVYLQMNSLKPEDTAVYYCARRGGYRRNTNFYYWGQGTQVTVSS,polyreactivity (PSR sort gate),high polyreactivity
QVQLVESGGGLVQAGGSLRLICAASGRISLSNAMGWYRHAPGKEREFVAAITKRSDRTYYADSVKGRFTISRDNAKNTVYLQMNSLKPEETAVYYCAAKPLFGTRDDYWGQGTQVTVSS,polyreactivity (PSR sort gate),low polyreactivity
QVQLVESGGGLVQAGGSLRLSCAASGRNFDWYAMGWYRQAPGKERELVAAISTSGANTYYADSVKGRFTISRDNAKNTVYLQMNSLKPEDTAVYYCATDPYQPYEGDYWGQGTLVTVSS,polyreactivity (PSR sort gate),low polyreactivity
QVQLVESGGGLVQAGGSLRLSCAASGRIFYTNAMGWSRQAPGKERELVAVISWGGDTTYYADSVKGRFTISRDNAKNTVYLQLNSLKPEDTAVYYCNADWGPTYEIYDSWGQGTQVTVSS,polyreactivity (PSR sort gate),low polyreactivity
QVQHVESGGGLVQAGGSLRLSCAASGSTFRVNAMGWYRPAPGKERELVAGISKSGTSTYYADSVKGRFTISRDNAKNTVYLQMNSLKPEDTAVYYCIKGYYRHPDESDYWGQGTQVTVSS,polyreactivity (PSR sort gate),high polyreactivity
QVQLVESGGGVVQAGGSLRLSCAASGFIFFINDMGWDRQAPGKERELVAAISWSGGSTYYADSVKGRFTISRDNAKNTVYLQMNSLIPEDTAVYYCNTDVPTAQYDYWGQGTQVTVSS,polyreactivity (PSR sort gate),low polyreactivity
QVQLVESGGGLVQAGGSLRLSCAASGRTFVYNTMGWYRQAPGKERELVASISSTGGNTYYSDSVKGRFTISRDNAKNTVYLQMNSLKPEDTAVYYCAAGAWTRGQYYYWGQRTQVTVSS,polyreactivity (PSR sort gate),high polyreactivity
QVQLVESGGGLVQARGSLRLSCAASGGNISYNAMGRYRQAPGKEREFVASISSSGGRTYYADSVKGRFTISRDNAKNTVYLQMNSLKPEDTAVFYCNADAQVEYGLFGQGWVTSFDYWGEGTQVTVSS,polyreactivity (PSR sort gate),low polyreactivity
QVQLVESGGGLVQAGGSLRLSCAASGRTLWSYTMGWYRQAPGKESELVARITIGGSTNYADSVKGRFTISRDNAKNTVYLQMNSLKPEDTAVYYCNARASYSYGSYLSKSYGYDYWGQGTQVTVSS,polyreactivity (PSR sort gate),high polyreactivity
QVQLVESGGGLVQAGGSLRLSCAASGRIVWYAMGWYRQAPGKERELVAAINWSGGSTYYADSVKGRFTISRDNAKNTVYLQMNSLKPEDTAVYYCAADVRNYWLEYEYWGQGTQVTVSS,polyreactivity (PSR sort gate),low polyreactivity
QVQLVESGGGLVQAGGSLRLSCAASGFTFDFYALGWYRQAPGKERELVAAISKNDGTTYYADSVKGRFTISRDNAKNTVYLQMNSLKPEDTAVYYCNAGNNVVVDYDYWGQGTQVTVSS,polyreactivity (PSR sort gate),low polyreactivity
QVQLVESGGGLVQAGGSLRLSCAASGSTFSHYTMGSYRQAAGKERELVAAITRSGGSTYYADSVKGRFTISRDNAKNTVYLQMNSLKTEDSAVYYSAATRHWNILRYDYWGQGTQVTVSS,polyreactivity (PSR sort gate),low polyreactivity
QVQLVESGGGLVQAGGSLRLSCDASGSTFRGYAMGWYRPAPGKERELVAAITSDGSTNYADSEKGRFTISRDNAKNTVYLQMNSLKPEDTAVYYCNVKATRKWWDRRVYRYNYWGQGTQVTVSS,polyreactivity (PSR sort gate),high polyreactivity
QVQLVESGGGLVQAGGSLRLSCAASGFISPSYAMGWYRQAPGKERELVAAIRSSDGSTYYADSVKGRFTISRDNAKNTVYLQMNSLKPEDTAVYYCAAGGSYYRDDYWGQGTQVTVSS,polyreactivity (PSR sort gate),low polyreactivity
QVQLVESCGGLVQAGGSLRLSCAASGSTFTIYAMGWYRQAPGKERELVAVISSSGGSTYYADSVKGRFTISRDNAKNTVYLQMNSLKPEDTAVYYCAADTRYFGGYLTLYYWGQGTQVTVSS,polyreactivity (PSR sort gate),low polyreactivity
QVQLVESGGGLVQAGGSLRLSCAASGITFVSYTMGWYRQAPGTEREFVAAITWNVASTYYADSVKGRFTISRDNAKNTVYLQMNSLKPEDTAVYYCAAGYDWSVITIYDYWGQGTQVTVSS,polyreactivity (PSR sort gate),high polyreactivity
QVQLVESGGGLVQAGGSLRLSCAASGRIFFGYAMGWYRQAPGKERELVATISYNDTSTYYADSVKGRFTISRDNAKNTVYLQMNSLKPEDTAVYYCAKSLGAPASDDYWGQGTQVTVSS,polyreactivity (PSR sort gate),low polyreactivity
QVQLVESGGGLVQAGGSLRLSCAASGIIFQFYAMGWYRQAPGKERELVAAISRSGGITHYADSVKGRFTISRDNAKNTVYLQMNSLKPEDTAVYYCAAVRQAYPRLDYWGQGTQVTVSS,polyreactivity (PSR sort gate),high polyreactivity
